One block for each binder: values may come before it.
Columns and labels:
Test in all cases: cell-based or functional assay
Elastase = biological target: Elastase
MMP7 = biological target: T1, MMP7 (UniProt P09237 95-267, limits assumed)
T1 sequence (looked up): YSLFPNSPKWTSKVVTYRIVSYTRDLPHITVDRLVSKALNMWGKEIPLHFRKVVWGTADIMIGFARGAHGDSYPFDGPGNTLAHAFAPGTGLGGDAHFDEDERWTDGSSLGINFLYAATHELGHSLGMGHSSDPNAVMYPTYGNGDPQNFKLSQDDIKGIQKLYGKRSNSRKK

Cathepsin G = biological target: T2, Cathepsin G (UniProt P08311 21-244)
T2 sequence (looked up): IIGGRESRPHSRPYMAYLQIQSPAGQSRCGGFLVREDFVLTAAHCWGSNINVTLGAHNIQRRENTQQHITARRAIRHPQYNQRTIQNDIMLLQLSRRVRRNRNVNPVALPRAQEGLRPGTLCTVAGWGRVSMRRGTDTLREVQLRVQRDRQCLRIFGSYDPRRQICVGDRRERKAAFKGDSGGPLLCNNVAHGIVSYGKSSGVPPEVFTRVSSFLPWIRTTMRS

MMP2 = biological target: T3, MMP2 (human, UniProt P08253 110-660, limits assumed)
T3 sequence (looked up): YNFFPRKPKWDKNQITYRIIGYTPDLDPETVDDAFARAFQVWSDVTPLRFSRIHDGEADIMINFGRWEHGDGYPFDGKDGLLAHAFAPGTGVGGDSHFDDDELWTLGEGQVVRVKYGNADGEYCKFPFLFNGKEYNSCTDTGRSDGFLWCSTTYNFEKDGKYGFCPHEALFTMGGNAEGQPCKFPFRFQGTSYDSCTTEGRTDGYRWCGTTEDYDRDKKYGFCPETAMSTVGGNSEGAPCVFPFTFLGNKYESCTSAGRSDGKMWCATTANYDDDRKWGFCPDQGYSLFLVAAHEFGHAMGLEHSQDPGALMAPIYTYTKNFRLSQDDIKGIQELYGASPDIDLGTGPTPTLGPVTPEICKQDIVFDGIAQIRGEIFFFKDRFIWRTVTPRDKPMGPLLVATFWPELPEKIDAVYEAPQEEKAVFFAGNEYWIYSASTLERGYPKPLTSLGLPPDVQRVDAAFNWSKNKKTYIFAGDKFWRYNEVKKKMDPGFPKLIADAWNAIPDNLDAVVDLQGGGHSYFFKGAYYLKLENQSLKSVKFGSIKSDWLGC

ADAMTS4 = biological target: T4, ADAMTS4 (human, UniProt O75173 213-685, limits assumed)
T4 sequence (looked up): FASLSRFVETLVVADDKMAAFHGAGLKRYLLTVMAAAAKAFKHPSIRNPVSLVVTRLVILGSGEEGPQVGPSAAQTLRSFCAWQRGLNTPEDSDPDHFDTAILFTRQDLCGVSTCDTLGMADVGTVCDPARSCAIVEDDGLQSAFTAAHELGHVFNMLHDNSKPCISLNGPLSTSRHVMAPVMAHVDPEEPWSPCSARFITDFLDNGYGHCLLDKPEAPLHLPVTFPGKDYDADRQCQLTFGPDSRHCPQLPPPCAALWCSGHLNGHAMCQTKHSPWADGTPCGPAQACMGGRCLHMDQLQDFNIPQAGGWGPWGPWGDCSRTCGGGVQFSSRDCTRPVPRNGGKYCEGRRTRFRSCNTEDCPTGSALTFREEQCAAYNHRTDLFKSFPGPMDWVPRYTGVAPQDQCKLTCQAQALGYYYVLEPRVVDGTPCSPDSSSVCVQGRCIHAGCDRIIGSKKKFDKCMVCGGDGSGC

MMP13 = MMP13 (human, UniProt P45452 104-471, limits assumed)
MMP9 = MMP9 (human, UniProt P14780 107-707, limits assumed)
MMP9, sequence (P14780 107-707 limits assumed): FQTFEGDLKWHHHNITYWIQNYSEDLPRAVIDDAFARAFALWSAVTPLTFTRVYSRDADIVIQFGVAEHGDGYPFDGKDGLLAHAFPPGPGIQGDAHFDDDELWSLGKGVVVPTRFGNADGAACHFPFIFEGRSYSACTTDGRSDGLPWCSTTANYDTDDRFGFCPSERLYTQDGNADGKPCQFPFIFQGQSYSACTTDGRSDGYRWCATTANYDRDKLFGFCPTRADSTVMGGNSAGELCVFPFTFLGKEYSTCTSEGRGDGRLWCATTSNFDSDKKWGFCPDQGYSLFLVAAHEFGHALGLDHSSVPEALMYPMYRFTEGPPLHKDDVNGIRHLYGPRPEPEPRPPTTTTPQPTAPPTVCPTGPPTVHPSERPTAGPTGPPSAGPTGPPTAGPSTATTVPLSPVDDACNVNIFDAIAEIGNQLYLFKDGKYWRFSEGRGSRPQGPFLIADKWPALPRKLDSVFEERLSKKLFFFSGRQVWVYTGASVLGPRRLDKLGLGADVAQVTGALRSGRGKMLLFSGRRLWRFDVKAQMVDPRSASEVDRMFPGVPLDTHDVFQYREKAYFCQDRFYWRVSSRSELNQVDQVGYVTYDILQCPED

MMP3 = MMP3 (human, UniProt P08254 100-477, limits assumed)
MMP3, sequence (P08254 100-477 limits assumed): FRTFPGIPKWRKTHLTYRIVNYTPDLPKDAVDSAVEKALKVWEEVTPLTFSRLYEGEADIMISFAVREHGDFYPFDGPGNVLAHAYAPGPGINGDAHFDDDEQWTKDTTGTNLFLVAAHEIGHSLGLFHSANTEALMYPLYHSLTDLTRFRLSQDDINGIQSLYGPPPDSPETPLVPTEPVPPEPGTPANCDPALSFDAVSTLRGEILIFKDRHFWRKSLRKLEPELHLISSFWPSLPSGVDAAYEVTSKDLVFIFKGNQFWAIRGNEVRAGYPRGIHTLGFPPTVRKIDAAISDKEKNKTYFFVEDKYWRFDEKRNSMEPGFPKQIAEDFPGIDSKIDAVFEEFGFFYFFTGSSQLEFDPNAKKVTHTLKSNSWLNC

MMP8 = MMP8 (human, UniProt P22894 101-467, limits assumed)
MMP8, sequence (P22894 101-467 limits assumed): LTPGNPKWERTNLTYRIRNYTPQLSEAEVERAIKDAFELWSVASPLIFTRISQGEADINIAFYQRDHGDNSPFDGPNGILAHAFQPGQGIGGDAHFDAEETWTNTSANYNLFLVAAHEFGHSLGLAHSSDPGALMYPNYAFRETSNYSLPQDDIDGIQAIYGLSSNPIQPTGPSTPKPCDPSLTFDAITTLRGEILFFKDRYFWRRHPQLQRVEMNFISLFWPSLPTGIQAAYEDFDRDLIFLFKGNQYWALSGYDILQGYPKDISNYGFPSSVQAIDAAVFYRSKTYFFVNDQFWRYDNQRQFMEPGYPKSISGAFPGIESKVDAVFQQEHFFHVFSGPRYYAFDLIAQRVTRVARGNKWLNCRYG

MMP1 = biological target: T5, MMP1 (human, UniProt P03956 100-469, limits assumed)
T5 sequence (looked up): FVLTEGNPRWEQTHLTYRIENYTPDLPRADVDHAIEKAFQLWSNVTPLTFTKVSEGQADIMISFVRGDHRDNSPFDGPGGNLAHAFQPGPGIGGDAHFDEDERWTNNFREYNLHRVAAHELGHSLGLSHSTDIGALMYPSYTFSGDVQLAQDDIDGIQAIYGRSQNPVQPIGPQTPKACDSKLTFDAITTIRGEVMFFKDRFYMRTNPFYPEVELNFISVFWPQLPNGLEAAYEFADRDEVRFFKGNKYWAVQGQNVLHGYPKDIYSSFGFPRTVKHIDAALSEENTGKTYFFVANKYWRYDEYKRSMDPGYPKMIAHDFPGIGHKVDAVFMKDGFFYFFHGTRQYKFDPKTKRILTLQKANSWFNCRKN

ADAMTS5 = biological target: T6, ADAMTS5 (human, UniProt Q9UNA0 262-622, limits assumed)
T6 sequence (looked up): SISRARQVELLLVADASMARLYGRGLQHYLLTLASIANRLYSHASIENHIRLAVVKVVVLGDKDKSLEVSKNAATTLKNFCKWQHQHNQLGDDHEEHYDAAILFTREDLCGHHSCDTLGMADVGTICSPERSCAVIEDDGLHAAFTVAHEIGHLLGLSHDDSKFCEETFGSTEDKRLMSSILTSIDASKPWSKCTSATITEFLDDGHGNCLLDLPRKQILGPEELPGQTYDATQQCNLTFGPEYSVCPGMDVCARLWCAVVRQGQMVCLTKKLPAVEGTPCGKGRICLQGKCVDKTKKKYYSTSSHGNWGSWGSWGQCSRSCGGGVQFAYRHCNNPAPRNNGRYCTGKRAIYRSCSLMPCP

Protease Inhibition (% of WT) (Elastase): 55 % of WT
Protease Inhibition (% of WT) (MMP7): 91 % of WT
Protease Inhibition (% of WT) (Cathepsin G): 104 % of WT
Protease Inhibition (% of WT) (MMP2): 3 % of WT
Protease Inhibition (% of WT) (ADAMTS4): 93 % of WT
Protease Inhibition (% of WT) (MMP13): 96 % of WT
Protease Inhibition (% of WT) (MMP9): 18 % of WT
Protease Inhibition (% of WT) (MMP3): < 100 % of WT
Protease Inhibition (% of WT) (MMP8): 29 % of WT
Protease Inhibition (% of WT) (MMP1): 67 % of WT
Protease Inhibition (% of WT) (ADAMTS5): 296 % of WT
B1: Variant A2M, bait region SEQ ID NO 30 (other)
chain: SVSGKPQYMVLVPSLLHTETTEKGCVLLSYLNETVTVSASLESVRGNRSLFTDLEAENDVLHCVAFAVPKSSSNEEVMFLTVQVKGPTQEFKKRTTVMVKNEDSLVFVQTDKSIYKPGQTVKFRVVSMDENFHPLNELIPLVYIQDPKGNRIAQWQSFQLEGGLKQFSFPLSSEPFQGSYKVVVQKKSGGRTEHPFTVEEFVLPKFEVQVTVPKIITILEEEMNVSVCGLYTYGKPVPGHVTVSICRKYSDASDCHGEDSQAFCEKFSGQLNSHGCFYQQVKTKVFQLKRKEYEMKLHTEAQIQEEGTVVELTGRQSSEITRTITKLSFVKVDSHFRQGIPFFGQVRLVDGKGVPIPNKVIFIRGNEANYYSNATTDEHGLVQFSINTTNVMGTSLTVRVNYKDRSPCYGYQWVSEEHEEAHHTAYLVFSPSKSFVHLEPMSHELPCGHTQTVQAHYILNGGTLLGLKKLSFYYLIMAKGGIVRTGTHGLLVKQEDMKGHFSISIPVKSDIAPVARLLIYAVLPTGDVIGDSAKYDVENCLANKVDLSFSPSQSLPASHAHLRVTAAPQSVCALRAVDQSVLLMKPDAELSASSVYNLLPEKDLTGFPGPLNDQDDEDCINRHNVYINGITYTPVSSTNEKDMYSFLEDMGLKAFTNSKIRKPKMCPQLEQYEMHGPEGEGEGPRYLTAIPENFFGVSEDLVVQISELEGRGSPHTKLRKYFPETWIWDLVVVNSAGVAEVGVTVPDTITEWKAGAFCLSEDAGLGISSTASLRAFQPFFVELTMPYSVIRGEAFTLKATVLNYLPKCIRVSVQLEASPAFLAVPVEKEQAPHCICANGRQTVSWAVTPKSLGNVNFTVSAEALESQELCGTEVPSVPEHGRKDTVIKPLLVEPEGLEKETTFNSLLCPSGGEVSEELSLKLPPNVVEESARASVSVLGDILGSAMQNTQNLLQMPYGCGEQNMVLFAPNIYVLDYLNETQQLTPEIKSKAIGYLNTGYQRQLNYKHYDGSYSTFGERYGRNQGNTWLTAFVLKTFAQARAYIFIDEAHITQALIWLSQRQKDNGCFRSSGSLLNNAIKGGVEDEVTLSAYITIALLEIPLTVTHPVVRNALFCLESAWKTAQEGDHGSHVYTKALLAYAFALAGNQDKRKEVLKSLNEEAVKKDNSVHWERPQKPKAPVGHFYEPQAPSAEVEMTSYVLLAYLTAQPAPTSEDLTSATNIVKWITKQQNAQGGFSSTQDTVVALHALSKYGAATFTRTGKAAQVTIQSSGTFSSKFQVDNNNRLLLQQVSLPELPGEYSMKVTGEGCVYLQTSLKYNILPEKEEFPFALGVQTLPQTCDEPKAHTSFQISLSVSYTGSRSASNMAIVDVKMVSGFIPLKPTVKMLERSNHVSRTEVSSNHVLIYLDKVSNQTLSLFFTVLQDVPVRDLKPAIVKVYDYYETDEFAIAEYNAPCSKDLGNADYKDDDDKGASHHHHHH

Protease Inhibition (% of WT) (Elastase): 93 % of WT
Protease Inhibition (% of WT) (MMP7): 80 % of WT
Protease Inhibition (% of WT) (Cathepsin G): 66 % of WT
Protease Inhibition (% of WT) (MMP2): 27 % of WT
Protease Inhibition (% of WT) (ADAMTS4): 124 % of WT
Protease Inhibition (% of WT) (MMP13): 88 % of WT
Protease Inhibition (% of WT) (MMP9): 20 % of WT
Protease Inhibition (% of WT) (MMP3): 27 % of WT
Protease Inhibition (% of WT) (MMP8): 33 % of WT
Protease Inhibition (% of WT) (MMP1): 67 % of WT
Protease Inhibition (% of WT) (ADAMTS5): 145 % of WT
B2: Variant A2M, bait region SEQ ID NO 9 (other)
chain: SVSGKPQYMVLVPSLLHTETTEKGCVLLSYLNETVTVSASLESVRGNRSLFTDLEAENDVLHCVAFAVPKSSSNEEVMFLTVQVKGPTQEFKKRTTVMVKNEDSLVFVQTDKSIYKPGQTVKFRVVSMDENFHPLNELIPLVYIQDPKGNRIAQWQSFQLEGGLKQFSFPLSSEPFQGSYKVVVQKKSGGRTEHPFTVEEFVLPKFEVQVTVPKIITILEEEMNVSVCGLYTYGKPVPGHVTVSICRKYSDASDCHGEDSQAFCEKFSGQLNSHGCFYQQVKTKVFQLKRKEYEMKLHTEAQIQEEGTVVELTGRQSSEITRTITKLSFVKVDSHFRQGIPFFGQVRLVDGKGVPIPNKVIFIRGNEANYYSNATTDEHGLVQFSINTTNVMGTSLTVRVNYKDRSPCYGYQWVSEEHEEAHHTAYLVFSPSKSFVHLEPMSHELPCGHTQTVQAHYILNGGTLLGLKKLSFYYLIMAKGGIVRTGTHGLLVKQEDMKGHFSISIPVKSDIAPVARLLIYAVLPTGDVIGDSAKYDVENCLANKVDLSFSPSQSLPASHAHLRVTAAPQSVCALRAVDQSVLLMKPDAELSASSVYNLLPEKDLTGFPGPLNDQDDEDCINRHNVYINGITYTPVSSTNEKDMYSFLEDMGLKAFTNSKIRKPKMCPQLEHGPEGEGEGEGIPENFFGVPRYLSEDLVVQISELEGRGSVEEPHTKLRKYFPETWIWDLVVVNSAGVAEVGVTVPDTITEWKAGAFCLSEDAGLGISSTASLRAFQPFFVELTMPYSVIRGEAFTLKATVLNYLPKCIRVSVQLEASPAFLAVPVEKEQAPHCICANGRQTVSWAVTPKSLGNVNFTVSAEALESQELCGTEVPSVPEHGRKDTVIKPLLVEPEGLEKETTFNSLLCPSGGEVSEELSLKLPPNVVEESARASVSVLGDILGSAMQNTQNLLQMPYGCGEQNMVLFAPNIYVLDYLNETQQLTPEIKSKAIGYLNTGYQRQLNYKHYDGSYSTFGERYGRNQGNTWLTAFVLKTFAQARAYIFIDEAHITQALIWLSQRQKDNGCFRSSGSLLNNAIKGGVEDEVTLSAYITIALLEIPLTVTHPVVRNALFCLESAWKTAQEGDHGSHVYTKALLAYAFALAGNQDKRKEVLKSLNEEAVKKDNSVHWERPQKPKAPVGHFYEPQAPSAEVEMTSYVLLAYLTAQPAPTSEDLTSATNIVKWITKQQNAQGGFSSTQDTVVALHALSKYGAATFTRTGKAAQVTIQSSGTFSSKFQVDNNNRLLLQQVSLPELPGEYSMKVTGEGCVYLQTSLKYNILPEKEEFPFALGVQTLPQTCDEPKAHTSFQISLSVSYTGSRSASNMAIVDVKMVSGFIPLKPTVKMLERSNHVSRTEVSSNHVLIYLDKVSNQTLSLFFTVLQDVPVRDLKPAIVKVYDYYETDEFAIAEYNAPCSKDLGNADYKDDDDKGASHHHHHH

From patent publication US20230250154A1 (CYTONICS, published 2023)
